This note sets out measurements from article PMC12173559, “The Functional DPP4 Receptor Is an Indispensable Factor Mediating the Immune Performance of Mucosal Vaccines for Middle East Respiratory Syndrome” (Transboundary and Emerging Diseases, 2025).

This test deals with T1, MERS-CoV receptor binding domain (RBD), biotinylated (MERS-CoV, UniProt K9N5Q8).
T1 construct: also called MERS-CoV RBD; MERS-CoV spike RBD
T1 sequence: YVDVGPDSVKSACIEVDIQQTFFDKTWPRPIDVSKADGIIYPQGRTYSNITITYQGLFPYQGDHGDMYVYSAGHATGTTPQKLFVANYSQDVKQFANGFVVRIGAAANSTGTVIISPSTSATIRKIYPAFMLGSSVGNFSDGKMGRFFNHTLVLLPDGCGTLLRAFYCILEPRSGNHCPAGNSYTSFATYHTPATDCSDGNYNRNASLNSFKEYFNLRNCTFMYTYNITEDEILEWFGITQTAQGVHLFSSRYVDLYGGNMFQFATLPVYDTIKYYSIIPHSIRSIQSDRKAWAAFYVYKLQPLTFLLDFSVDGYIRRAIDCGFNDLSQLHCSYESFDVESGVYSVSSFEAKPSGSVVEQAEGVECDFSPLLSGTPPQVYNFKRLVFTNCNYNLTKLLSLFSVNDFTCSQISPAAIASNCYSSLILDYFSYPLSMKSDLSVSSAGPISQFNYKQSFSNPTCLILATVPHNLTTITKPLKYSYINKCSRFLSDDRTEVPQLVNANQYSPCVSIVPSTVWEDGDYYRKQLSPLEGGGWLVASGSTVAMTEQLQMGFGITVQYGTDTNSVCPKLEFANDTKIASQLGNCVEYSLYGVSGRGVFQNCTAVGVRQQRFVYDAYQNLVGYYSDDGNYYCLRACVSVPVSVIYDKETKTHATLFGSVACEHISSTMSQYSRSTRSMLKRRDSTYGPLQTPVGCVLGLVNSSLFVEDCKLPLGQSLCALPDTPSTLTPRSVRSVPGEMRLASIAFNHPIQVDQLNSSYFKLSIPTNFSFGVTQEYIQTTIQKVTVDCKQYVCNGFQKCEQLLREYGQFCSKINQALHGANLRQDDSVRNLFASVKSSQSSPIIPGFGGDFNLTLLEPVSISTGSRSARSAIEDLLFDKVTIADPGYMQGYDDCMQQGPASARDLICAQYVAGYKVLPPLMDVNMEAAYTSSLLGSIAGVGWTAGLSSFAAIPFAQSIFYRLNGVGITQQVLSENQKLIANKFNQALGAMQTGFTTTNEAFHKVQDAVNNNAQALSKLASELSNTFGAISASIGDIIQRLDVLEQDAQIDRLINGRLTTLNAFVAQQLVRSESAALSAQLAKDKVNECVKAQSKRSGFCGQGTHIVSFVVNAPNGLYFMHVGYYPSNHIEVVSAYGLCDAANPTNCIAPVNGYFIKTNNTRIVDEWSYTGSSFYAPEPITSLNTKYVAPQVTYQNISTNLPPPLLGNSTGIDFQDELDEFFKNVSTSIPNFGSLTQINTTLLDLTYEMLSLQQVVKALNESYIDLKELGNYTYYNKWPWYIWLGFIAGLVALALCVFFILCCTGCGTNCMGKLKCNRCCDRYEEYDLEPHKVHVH
Nature of the test: BLI; […] (10 µg/mL) […] (SA) biosensor for 300 s; analyte in kinetic buffer (PBST, 0.1% BSA) […], association 120 s, dissociation 180 s; […]. To be noted: both partners purified.

B1: human DPP4 (receptor)
chain: SRKTYTLTDYLKNTYRLKLYSLRWISDHEYLYKQENNILVFNAEYGNSSVFLENSTFDEFGHSINDYSISPDGQFILLEYNYVKQWRHSYTASYDIYDLNKRQLITEERIPNNTQWVTWSPVGHKLAYVWNNDIYVKIEPNLPSYRITWTGKEDIIYNGITDWVYEEEVFSAYSALWWSPNGTFLAYAQFNDTEVPLIEYSFYSDESLQYPKTVRVPYPKAGAVNPTVKFFVVNTDSLSSVTNATSIQITAPASMLIGDHYLCDVTWATQERISLQWLRRIQNYSVMDICDYDESSGRWNCLVARQHIEMSTTGWVGRFRPSEPHFTLDGNSFYKIISNEEGYRHICYFQIDKKDCTFITKGTWEVIGIEALTSDYLYYISNEYKGMPGGRNLYKIQLSDYTKVTCLSCELNPERCQYYSVSFSKEAKYYQLRCSGPGLPLYTLHSSVNDKGLRVLEDNSALDKMLQNVQMPSKKLDFIILNETKFWYQMILPPHFDKSKKYPLLLDVYAGPCSQKADTVFRLNWATYLASTENIIVASFDGRGSGYQGDKIMHAINRRLGTFEVEDQIEAARQFSKMGFVDNKRIAIWGWSYGGYVTSMVLGSGSGVFKCGIAVAPVSRWEYYDSVYTERYMGLPTPEDNLDHYRNSTVMSRAENFKQVEYLLIHGTADDNVHFQQSAQISKALVDVGVDFQAMWYTDEDHGIASSTAHQHIYTHMSHFIKQCFSLP
For B1, the dissociation constant (Kd) (in general, the concentration at which binding is half-saturated) was 55.1 nM.
